# Source: patent US20120263651
# Where two headings read alike, the source gives them in different places.
# Target: endogenous RelA in A549 cells (Homo sapiens) (UniProt Q04206)
# Settings: two-step ChIP
# Sequence of endogenous RelA in A549 cells (Homo sapiens) (Q04206 whole entry): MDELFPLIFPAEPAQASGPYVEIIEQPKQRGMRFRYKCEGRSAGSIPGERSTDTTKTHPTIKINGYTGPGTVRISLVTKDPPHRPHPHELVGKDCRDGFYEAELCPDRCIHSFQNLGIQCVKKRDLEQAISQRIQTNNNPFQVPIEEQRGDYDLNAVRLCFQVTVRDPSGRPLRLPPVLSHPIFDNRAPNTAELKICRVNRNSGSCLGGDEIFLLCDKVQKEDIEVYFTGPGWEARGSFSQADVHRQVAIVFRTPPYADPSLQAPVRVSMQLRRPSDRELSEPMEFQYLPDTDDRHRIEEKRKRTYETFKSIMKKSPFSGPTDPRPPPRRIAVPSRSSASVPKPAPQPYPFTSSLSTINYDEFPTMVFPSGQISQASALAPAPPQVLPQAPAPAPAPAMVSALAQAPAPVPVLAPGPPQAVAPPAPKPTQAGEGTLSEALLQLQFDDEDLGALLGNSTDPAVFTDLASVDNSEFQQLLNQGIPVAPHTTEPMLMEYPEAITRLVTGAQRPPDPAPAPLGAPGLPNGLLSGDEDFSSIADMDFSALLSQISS
Substance,binding signal (fold increase with TNF) (reduced by transfected P028F4 (4 uM)),binding signal (fold increase with TNF) (reduced to less than 2-fold by P028F4)
Gro-beta promoter chromatin,3.5,–
TNFAIP3/A20 promoter chromatin,–,3.5
